# Reference: PMC5792032
# What was measured:
# [1] = test system: NS5A domain I WT (Hepatitis C virus JFH-1 (genotype 2a)); test: filter binding; details: Binding buffer and temperature not given (as in ref 32); slot blot nitrocellulose/nylon, hyperbolic fit; protein dialyzed in 20 mM Tris-HCl pH 8.2, 150 mM …
# [2] = biological target: NS5A domain I (35-215) V67A; test: GST pulldown, Western blot quantification (Li-Cor Odyssey Sa); details: parent: est. 7.4; read off a plot
# GST control protein = test: as above; details: parent: est. 0.78; read off a plot
# [3] = biological target: NS5A domain I (35-215) P145A; test: as above; details: parent: est. 7.4; read off a plot
# [4] = biological target: NS5A domain I (35-215) P35A; test: as above; details: parent: est. 7.4; read off a plot
Substance,Kd [1],response [2],response (GST control protein),response [3],response [4]
HCV 3'UTR RNA,0.246 µM,–,–,–,–
"NS5A domain I (35-215), wild type V67A",–,0.39,0.15,–,–
"NS5A domain I (35-215), wild type P145A",–,–,0.34,1.3,–
"NS5A domain I (35-215), wild type P35A",–,–,0.34,–,2.5
